First the molecules themselves.
B1: TPPP (parent)
chain: LCKDCQVIDGRNVTVTDVDIVFSK
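Note: lentivirally expressed fusions sorted by FACS into six bins by GFP to DsRed ratio, PSI derived from sequencing read proportions per bin multiplied by bin number.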

The variants in this series derive from B1. As to the kind of experiment: protein stability index of a GFP-peptide fusion (GPS, HEK-293T) (PSI 1-6); higher = more stable. Particulars: c terminus: a fixed tail appended.
As for MCKDCQVIDGRNVTVTDVDIVFSK, the protein stability index came out at 2.26.
In the case of KCKDCQVIDGRNVTVTDVDIVFSK it was 3.47.
For ACKDCQVIDGRNVTVTDVDIVFSK the value was 2.54; for QCKDCQVIDGRNVTVTDVDIVFSK, 3.08.
As to NCKDCQVIDGRNVTVTDVDIVFSK, the protein stability index amounted to 3.32.
In the case of LWKDCQVIDGRNVTVTDVDIVFSK it was 2.56; in that of LQKDCQVIDGRNVTVTDVDIVFSK, 4.18.
In the case of LIKDCQVIDGRNVTVTDVDIVFSK it was 2.93; in that of LMKDCQVIDGRNVTVTDVDIVFSK, 3.24.
For LGKDCQVIDGRNVTVTDVDIVFSK the value was 3.37; for LYKDCQVIDGRNVTVTDVDIVFSK, 2.75; for LNKDCQVIDGRNVTVTDVDIVFSK, 3.59.
As to LCKDCQVIDGRNVTVTDVDIVFTK, the protein stability index was 2.23.
For LCKDCQVIDGRNVTVTDVDIVFNK the value was 2.75; for LCKDCQVIDGRNVTVTDVDIVFMK, 1.84.
In the case of LCKDCQVIDGRNVTVTDVDIVFYK it was 1.72; in that of LCKDCQVIDGRNVTVTDVDIVFDK, 2.81.
In the case of LCKDCQVIDGRNVTVTDVDIVFGK it was 3.13; in that of LCKDCQVIDGRNVTVTDVDIVFAK, 2.55; in that of LCKDCQVIDGRNVTVTDVDIVFPK, 2.98.
For LCKDHQVIDGRNVTVTDVDIVFSK, the protein stability index stood at 3.82.
For LCKDGQVIDGRNVTVTDVDIVFSK the value was 2.98.
In the case of LCKDVQVIDGRNVTVTDVDIVFSK it was 3.36; in that of LCKDNQVIDGRNVTVTDVDIVFSK, 3.66; in that of LCKDTQVIDGRNVTVTDVDIVFSK, 3.35.
As to LCKDMQVIDGRNVTVTDVDIVFSK, the protein stability index worked out at 2.77.
For the variant LCKDPQVIDGRNVTVTDVDIVFSK, the protein stability index came to 4.03.
In the case of LCKDCQVIDGRGVTVTDVDIVFSK it was 2.48; in that of LCKDCQVIDGRFVTVTDVDIVFSK, 2.48.
In the case of LCKDCQVIDGRMVTVTDVDIVFSK it was 1.73.
LCKDCQVIDGRRVTVTDVDIVFSK: the protein stability index amounted to 2.23.
For LCKDCQVIDGRAVTVTDVDIVFSK the value was 2.57; for LCKDCQVIDGRTVTVTDVDIVFSK, 2.11.
In the case of LCKDCQVIDGRSVTVTDVDIVFSK it was 1.98.
In the case of LCKDCQVIDGRCVTVTDVDIVFSK it was 2.17; in that of LCKDCQVIDGRDVTVTDVDIVFSK, 2.68; in that of LCKDCQVIDGRQVTVTDVDIVFSK, 2.3.
Take LCKDCQVADGRNVTVTDVDIVFSK: the protein stability index turned out to be 2.84.
In the case of LCKDCQVRDGRNVTVTDVDIVFSK it was 3.2; in that of LCKDCQVFDGRNVTVTDVDIVFSK, 2.42.
In the case of LCKDCQVVDGRNVTVTDVDIVFSK it was 3.47; in that of LCKDCQVHDGRNVTVTDVDIVFSK, 2.43.
In the case of LCKDCQVYDGRNVTVTDVDIVFSK it was 2.
On to LCKDCQVWDGRNVTVTDVDIVFSK, for which the protein stability index was 1.83.
Regarding LCKDCQVIDGRNVTVTDQDIVFSK, the protein stability index worked out at 3.16.
Take LCKDCQVIDGRNVTVTDMDIVFSK: the protein stability index worked out at 1.92.
Regarding LCKDCQVIDGRNVTVTDPDIVFSK, the protein stability index stood at 2.73.
On to LCKDCQVIDGRNVTVTDEDIVFSK, for which the protein stability index is 3.52.
In the case of LCKDCQVIDGRNVTVTDLDIVFSK it was 2.4; in that of LCKDCQVIDGRNVTVTDCDIVFSK, 2.48.
In the case of LCKDCQVIDGRNVTVTEVDIVFSK it was 2.07; in that of LCKDCQVIDGRNVTVTAVDIVFSK, 2.33; in that of LCKDCQVIDGRNVTVTLVDIVFSK, 3.14.
In the case of LCKDCQVIDGRNVTVTSVDIVFSK it was 1.28; in that of LCKDCQVIDGRNVTVTKVDIVFSK, 1.77.
As for LCKDCQVIDGRNVTVTPVDIVFSK, the protein stability index is 2.21.
In the case of LCWDCQVIDGRNVTVTDVDIVFSK it was 1.49.
LCDDCQVIDGRNVTVTDVDIVFSK: the protein stability index was 3.3.
In the case of LCADCQVIDGRNVTVTDVDIVFSK it was 2.51.
Consider LCLDCQVIDGRNVTVTDVDIVFSK, for which the protein stability index came to 1.92.
For LCCDCQVIDGRNVTVTDVDIVFSK the value was 1.89.
For LCTDCQVIDGRNVTVTDVDIVFSK, the protein stability index was found to be 2.83.
As for LCSDCQVIDGRNVTVTDVDIVFSK, the protein stability index came to 2.17.
For LCMDCQVIDGRNVTVTDVDIVFSK the value was 1.78; for LCEDCQVIDGRNVTVTDVDIVFSK, 3.21.
For the variant LCPDCQVIDGRNVTVTDVDIVFSK, the protein stability index amounted to 3.26.
In the case of LCKDCHVIDGRNVTVTDVDIVFSK it was 2.73; in that of LCKDCNVIDGRNVTVTDVDIVFSK, 2.49; in that of LCKDCLVIDGRNVTVTDVDIVFSK, 1.97.
For the variant LCKDCTVIDGRNVTVTDVDIVFSK, the protein stability index was found to be 2.7.
Regarding LCKDCKVIDGRNVTVTDVDIVFSK, the protein stability index is 2.16.
In the case of LCKDCMVIDGRNVTVTDVDIVFSK it was 2.66; in that of LCKDCYVIDGRNVTVTDVDIVFSK, 2.4.
In the case of LCKDCQVIDGRNVTVWDVDIVFSK it was 1.24.
For LCKDCQVIDGRNVTVQDVDIVFSK the value was 2.54; for LCKDCQVIDGRNVTVEDVDIVFSK, 3.01; for LCKDCQVIDGRNVTVSDVDIVFSK, 2.92.
For the variant LCKDCQVIDGRNVTVNDVDIVFSK, the protein stability index was 2.59.
For LCKDCQVIDNRNVTVTDVDIVFSK the value was 2.39.
LCKDCQVIDFRNVTVTDVDIVFSK: the protein stability index is 1.77.
For the variant LCKDCQVIDHRNVTVTDVDIVFSK, the protein stability index was found to be 2.8.
In the case of LCKDCQVIDDRNVTVTDVDIVFSK it was 3.35; in that of LCKDCQVIDMRNVTVTDVDIVFSK, 1.54.
In the case of LCKDCQVIDPRNVTVTDVDIVFSK it was 2.63; in that of LCKDCQVIDARNVTVTDVDIVFSK, 2.31.
Consider LCKDCQVIDGRNVTVTDVGIVFSK, for which the protein stability index was 2.08.
With LCKDCQVIDGRNVTVTDVMIVFSK, the protein stability index stood at 2.28.
In the case of LCKDCQVIDGRNVTVTDVLIVFSK it was 2.26; in that of LCKDCQVIDGRNVTVTDVIIVFSK, 2.09; in that of LCKDCQVIDGRNVTVTDVCIVFSK, 2.4.
Consider LCKDCQVIDGRNVTVTDVAIVFSK, for which the protein stability index came to 2.77.
In the case of LCKDCQVIDGRNVTVTDVHIVFSK it was 2.97; in that of LCKDCQVIDGRNVTVTDVVIVFSK, 1.95; in that of LCKDCQVIDGRNVTVTDVKIVFSK, 1.39.

Values taken from the supplement of paper PMC10567573.
